In assay [1] the target is T1, native human low density lipoprotein (LDL) (human, UniProt P04114 28-4563).
T1 construct: This is a lipoprotein particle (protein plus lipid), not an isolated polypeptide; also called native LDL; cold LDL
Nature of the assay: affinity coelectrophoresis (ACE): 125I-LBP-3 run through LDL cast in agarose; binding curve. The method, then: (§1) Analysis of the affinity and specificity of recombinant rabbit LBP-1, LBP-2 or LBP-3 binding to LDL was carried out using the principle of affinity electrophoresis (Lee and Lander, Proc. Natl. Acad. Sci. USA 88:2768-2772 (1991)). Melted agarose (1%; 65° C.) was prepared in 50 mM sodium MOPS, pH 7.0; 125 mM sodium acetate, 0.5% CHAPS. A teflon comb consisting of nine parallel bars (45×4×4 mm/3 mm spacing between bars) was placed onto GelBond film (FMC Bioproducts, Rockland, Me.) fitted to a plexiglass casting tray with the long axis of the bars parallel to the long axis of the casting tray. A teflon strip (66×1×1 mm) was placed on edge with the long axis parallel to the short axis of the casting tray, at a distance of 4 mm from the edge of the teflon comb. Melted agarose (>65° C.) was then poured to achieve a height of approximately 4 mm. […] LDL or HDL samples were prepared in gel buffer (50 mM sodium MOPS, pH 7.0, 125 mM sodium acetate) at twice the desired concentration. Samples were then mixed with an equal volume of melted agarose (in 50 mM MOPS, pH 7.0; 125 mM sodium acetate; 50° C.), pipetted into the appropriate rectangular wells and allowed to gel. The binding affinity and specificity of LBP-1 and LBP-3 was tested using several concentrations of LDL (540 to 14 nM) and HDL (2840177 nM). […]

The target of assay [2] is T1, native human low density lipoprotein …. Nature of the assay: affinity coelectrophoresis (ACE): 125I-LBP-2 run through LDL cast in agarose; binding curve. The method, then:
as §1

T1 sequence (P04114 28-4563): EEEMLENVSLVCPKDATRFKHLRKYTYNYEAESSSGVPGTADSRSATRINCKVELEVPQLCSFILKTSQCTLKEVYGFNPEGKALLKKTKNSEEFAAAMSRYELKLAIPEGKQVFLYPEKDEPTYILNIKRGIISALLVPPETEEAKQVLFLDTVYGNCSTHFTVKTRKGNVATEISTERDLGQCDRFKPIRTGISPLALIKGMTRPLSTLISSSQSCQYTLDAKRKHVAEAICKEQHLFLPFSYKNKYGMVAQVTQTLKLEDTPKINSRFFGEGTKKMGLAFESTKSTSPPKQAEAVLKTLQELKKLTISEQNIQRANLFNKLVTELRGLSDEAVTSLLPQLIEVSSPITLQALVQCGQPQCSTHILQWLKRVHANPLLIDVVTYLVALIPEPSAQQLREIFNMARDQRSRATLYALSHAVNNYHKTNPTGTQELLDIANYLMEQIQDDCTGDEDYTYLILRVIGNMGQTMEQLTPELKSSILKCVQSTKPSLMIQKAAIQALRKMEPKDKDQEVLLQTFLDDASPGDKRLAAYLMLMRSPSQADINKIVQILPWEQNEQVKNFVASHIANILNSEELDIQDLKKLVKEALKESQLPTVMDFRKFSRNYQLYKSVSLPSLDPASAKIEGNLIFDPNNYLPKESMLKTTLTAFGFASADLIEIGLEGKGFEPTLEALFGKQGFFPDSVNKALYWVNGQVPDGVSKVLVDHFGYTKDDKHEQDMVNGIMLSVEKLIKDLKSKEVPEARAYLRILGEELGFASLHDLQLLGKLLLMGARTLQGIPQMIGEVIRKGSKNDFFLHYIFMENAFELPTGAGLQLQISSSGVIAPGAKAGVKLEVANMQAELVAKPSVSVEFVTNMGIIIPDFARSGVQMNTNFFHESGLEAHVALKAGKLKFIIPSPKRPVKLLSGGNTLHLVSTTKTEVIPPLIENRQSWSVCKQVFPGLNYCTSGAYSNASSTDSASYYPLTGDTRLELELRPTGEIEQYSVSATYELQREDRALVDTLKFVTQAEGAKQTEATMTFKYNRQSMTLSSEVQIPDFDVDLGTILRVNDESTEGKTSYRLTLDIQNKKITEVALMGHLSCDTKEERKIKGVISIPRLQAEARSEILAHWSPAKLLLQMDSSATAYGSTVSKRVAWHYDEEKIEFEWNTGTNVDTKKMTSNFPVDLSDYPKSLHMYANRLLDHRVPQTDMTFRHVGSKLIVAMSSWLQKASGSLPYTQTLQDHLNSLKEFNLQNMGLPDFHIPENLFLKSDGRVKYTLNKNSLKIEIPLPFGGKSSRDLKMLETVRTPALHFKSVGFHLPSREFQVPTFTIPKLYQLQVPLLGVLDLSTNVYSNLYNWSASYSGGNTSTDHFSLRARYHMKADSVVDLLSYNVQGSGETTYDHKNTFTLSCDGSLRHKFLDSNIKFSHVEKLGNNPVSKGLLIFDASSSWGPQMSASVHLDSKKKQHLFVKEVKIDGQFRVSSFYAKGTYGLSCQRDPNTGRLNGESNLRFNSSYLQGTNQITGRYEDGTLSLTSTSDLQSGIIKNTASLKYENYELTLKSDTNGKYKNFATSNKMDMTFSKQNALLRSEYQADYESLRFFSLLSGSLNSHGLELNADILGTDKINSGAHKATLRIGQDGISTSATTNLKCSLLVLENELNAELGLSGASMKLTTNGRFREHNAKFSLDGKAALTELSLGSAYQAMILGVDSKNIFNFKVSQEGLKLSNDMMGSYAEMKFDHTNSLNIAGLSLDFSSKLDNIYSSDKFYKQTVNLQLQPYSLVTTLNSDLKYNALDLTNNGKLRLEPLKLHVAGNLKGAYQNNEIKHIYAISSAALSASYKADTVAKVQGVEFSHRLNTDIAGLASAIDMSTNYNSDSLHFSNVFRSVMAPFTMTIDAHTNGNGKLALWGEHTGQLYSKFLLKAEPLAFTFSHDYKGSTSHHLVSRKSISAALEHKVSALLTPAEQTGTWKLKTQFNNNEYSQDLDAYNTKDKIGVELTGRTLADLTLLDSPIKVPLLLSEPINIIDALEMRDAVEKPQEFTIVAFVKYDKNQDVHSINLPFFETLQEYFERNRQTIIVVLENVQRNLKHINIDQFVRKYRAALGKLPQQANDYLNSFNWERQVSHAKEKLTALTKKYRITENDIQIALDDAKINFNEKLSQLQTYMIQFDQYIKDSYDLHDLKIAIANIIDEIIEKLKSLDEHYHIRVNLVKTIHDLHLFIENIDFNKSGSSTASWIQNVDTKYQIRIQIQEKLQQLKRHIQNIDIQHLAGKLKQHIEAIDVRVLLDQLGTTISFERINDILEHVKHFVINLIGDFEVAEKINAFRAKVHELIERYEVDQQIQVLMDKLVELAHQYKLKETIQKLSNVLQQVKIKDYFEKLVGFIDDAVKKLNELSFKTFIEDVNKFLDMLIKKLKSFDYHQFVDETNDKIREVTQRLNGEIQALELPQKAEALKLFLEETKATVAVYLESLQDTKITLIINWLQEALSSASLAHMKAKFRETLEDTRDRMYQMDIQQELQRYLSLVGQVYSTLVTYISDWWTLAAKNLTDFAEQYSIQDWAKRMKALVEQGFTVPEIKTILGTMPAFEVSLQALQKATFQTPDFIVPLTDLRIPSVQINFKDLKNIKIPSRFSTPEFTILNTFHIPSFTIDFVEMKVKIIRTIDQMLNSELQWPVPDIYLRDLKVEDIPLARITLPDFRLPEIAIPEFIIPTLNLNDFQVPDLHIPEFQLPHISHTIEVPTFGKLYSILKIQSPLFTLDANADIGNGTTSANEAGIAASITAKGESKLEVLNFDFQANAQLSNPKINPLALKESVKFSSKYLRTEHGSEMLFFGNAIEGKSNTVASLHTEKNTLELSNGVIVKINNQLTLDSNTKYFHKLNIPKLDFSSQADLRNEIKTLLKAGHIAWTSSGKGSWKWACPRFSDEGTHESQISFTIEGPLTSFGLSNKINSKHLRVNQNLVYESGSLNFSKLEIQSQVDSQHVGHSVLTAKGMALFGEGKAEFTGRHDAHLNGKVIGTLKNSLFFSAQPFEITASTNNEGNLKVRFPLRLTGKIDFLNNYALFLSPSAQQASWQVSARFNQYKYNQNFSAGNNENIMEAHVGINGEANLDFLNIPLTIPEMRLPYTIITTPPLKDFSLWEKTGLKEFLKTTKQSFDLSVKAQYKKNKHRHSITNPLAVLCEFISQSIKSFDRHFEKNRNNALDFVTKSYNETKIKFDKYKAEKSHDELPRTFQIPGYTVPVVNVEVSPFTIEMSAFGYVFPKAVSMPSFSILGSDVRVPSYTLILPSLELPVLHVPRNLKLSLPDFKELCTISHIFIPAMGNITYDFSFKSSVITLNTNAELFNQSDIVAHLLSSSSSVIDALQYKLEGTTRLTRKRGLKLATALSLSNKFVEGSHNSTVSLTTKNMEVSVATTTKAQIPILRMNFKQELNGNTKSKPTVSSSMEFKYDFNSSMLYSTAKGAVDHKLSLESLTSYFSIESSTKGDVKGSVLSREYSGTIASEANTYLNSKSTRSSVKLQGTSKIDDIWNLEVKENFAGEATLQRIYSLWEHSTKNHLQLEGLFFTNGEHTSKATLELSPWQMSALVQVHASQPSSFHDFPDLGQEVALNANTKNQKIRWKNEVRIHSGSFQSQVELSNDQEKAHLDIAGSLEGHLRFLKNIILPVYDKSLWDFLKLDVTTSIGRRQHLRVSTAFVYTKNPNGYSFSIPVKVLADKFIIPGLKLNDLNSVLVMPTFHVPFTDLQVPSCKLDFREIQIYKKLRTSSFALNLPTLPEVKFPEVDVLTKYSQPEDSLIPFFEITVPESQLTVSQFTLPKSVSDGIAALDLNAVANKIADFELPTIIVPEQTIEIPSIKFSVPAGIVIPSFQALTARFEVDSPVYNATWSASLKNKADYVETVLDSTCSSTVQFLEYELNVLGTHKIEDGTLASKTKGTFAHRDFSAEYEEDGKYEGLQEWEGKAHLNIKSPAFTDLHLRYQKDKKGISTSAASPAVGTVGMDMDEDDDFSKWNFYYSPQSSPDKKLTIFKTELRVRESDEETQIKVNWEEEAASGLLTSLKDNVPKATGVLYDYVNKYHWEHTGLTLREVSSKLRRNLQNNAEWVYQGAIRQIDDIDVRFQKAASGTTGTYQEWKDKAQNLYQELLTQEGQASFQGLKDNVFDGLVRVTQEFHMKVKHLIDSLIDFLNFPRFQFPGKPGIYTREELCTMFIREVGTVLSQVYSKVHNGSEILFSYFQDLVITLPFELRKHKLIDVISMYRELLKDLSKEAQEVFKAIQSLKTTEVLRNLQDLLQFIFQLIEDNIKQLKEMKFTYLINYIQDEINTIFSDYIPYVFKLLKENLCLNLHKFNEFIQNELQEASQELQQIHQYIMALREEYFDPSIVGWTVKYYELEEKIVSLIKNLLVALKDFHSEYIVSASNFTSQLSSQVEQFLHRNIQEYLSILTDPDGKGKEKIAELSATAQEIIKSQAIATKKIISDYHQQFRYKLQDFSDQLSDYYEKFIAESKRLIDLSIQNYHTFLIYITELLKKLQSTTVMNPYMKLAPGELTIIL

B1: recombinant rabbit LBP-3 (6-His tag) (other)
chain: MKNQDKKNGAAKQPNPKSSPGQPEAGAEGAQGRPGRPAPAREAEGASSQAPGRPEGAQAKTAQPGALCDVSEELSRQLEDILSTYCVDNNQGAPGEDGVQGEPPEPEDAEKSRAYVARNGEPEPGTPVVNGEKETSKAEPGTEEIRTSDEVGDRDHRRPQEKKKAKGLGKEITLLMQTLNTLSTPEEKLAALCKKYAELLEEHRNSQKQMKLLQKKQSQLVQEKDHLRGEHSKAILARSKLESLCRELQRHNRSLKEEGVQRAREEEEKRKEVTSHFQMTLNDIQLQMEQHNERNSKLRQENMELAERLKKLIEQYELREEHIDKVFKHKDLQQQLVDAKLQQAQEMLKEAEERHQREKDFLLKEAVESQRMCELMKQQETHLKQQLALYTEKFEEFQNTLSKSSEVFTTFKQEMEKMTKKIKKLEKETTMYRSRWESSNKALLEMAEEKTLRDKELEGLQVKIQRLEKLCRALQTERNDLNKRVQDLSAGGQGPVSDSGPERRPEPATTSKEQGVEGPGAQVPNSPRATDASCCAGAPSTEASGQTGPQEPTTATA
modifications: 125I-iodinated (Iodobeads) where used as the radiolabeled species in ACE assays
notes: also called LBP-3 (80 kDa fragment); rabbit recombinant LBP-3; not shown: N-terminal 6-histidine tag from the pPROEX-HT vector
One may read the Kd as the equilibrium constant for the complex coming apart. Read a high Kd as a looser complex. B1: the Kd in assay [1] was found to be 333 nM.

B2: recombinant rabbit LBP-2 clone 26 (6-His tag) (other)
chain: PPPPQQPQPPPEGGAARAGGPARPVSLREVVRYLGGSSGAGGRLTRGRVQGLLEEEAAARGRLERTRLGALALPRGDRPGRAPPAASARAARNKRAGEERVLEKEEEEEEEEDDEDDDDDVVSEGSEVPESDRPAGAQHHQLNGGERGPQTAKERAKEWSLCGPHPGQEEGRGPAAGSGTRQVFSMAALSKEGGSASSTTGPDSPSPVPLPPGKPALPGADGTPFGCPAGRKEKPADPVEWTVMDVVEYFTEAGFPEQATAFQEQEIDGKSLLLMQRTDVLTGLSIRLGPALKIYEHHIKVLQQGHFEDDDPEGFLG
modifications: 125I-iodinated (Iodobeads) where used as the radiolabeled species in ACE assays
notes: Clone 26 contains the acidic region, residues 338-365; also called LBP-2 (rabbit clone 26); clone 26 derived LBP-2; not shown: N-terminal 6-histidine tag from the pPROEX-HT vector
Consider B2, for which the equilibrium dissociation constant (Kd) in assay [2] turned out to be 100 nM.

Values taken from US20020152485A1 (BOSTON HEART FOUNDATION, published 2002).
